Experimental data from patent US9688764B2, “Methods of treating breast cancer by administering anti-human prolactin receptor (PRLR) antibodies” (REGENERON PHARMACEUTICALS, INC., priority 2013, dated 2017).
Substitutions are numbered along the chain they refer to.

T1: HEK293/mPRLR (Mus musculus, UniProt Q08501)
T1 construct: HA; expressed in transfected cells; host or cells: HEK293
T1 sequence (Q08501 20-608): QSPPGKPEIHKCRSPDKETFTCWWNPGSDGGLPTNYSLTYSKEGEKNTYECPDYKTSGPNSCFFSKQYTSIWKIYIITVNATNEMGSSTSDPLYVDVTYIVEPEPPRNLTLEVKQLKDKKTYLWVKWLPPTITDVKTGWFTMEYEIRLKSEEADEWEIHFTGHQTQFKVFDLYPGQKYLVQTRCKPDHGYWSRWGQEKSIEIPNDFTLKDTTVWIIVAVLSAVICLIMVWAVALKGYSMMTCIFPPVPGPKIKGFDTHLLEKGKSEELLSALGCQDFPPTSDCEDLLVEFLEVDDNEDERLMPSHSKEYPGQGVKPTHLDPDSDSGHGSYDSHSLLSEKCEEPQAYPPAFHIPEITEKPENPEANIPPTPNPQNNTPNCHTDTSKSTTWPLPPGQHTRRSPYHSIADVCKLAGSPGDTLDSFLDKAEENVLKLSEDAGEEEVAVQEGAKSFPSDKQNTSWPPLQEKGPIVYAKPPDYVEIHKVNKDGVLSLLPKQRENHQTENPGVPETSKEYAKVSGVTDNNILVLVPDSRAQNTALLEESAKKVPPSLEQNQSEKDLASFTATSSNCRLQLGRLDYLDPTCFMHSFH

T2: T47D (native PRLR expressing cell line) (Homo sapiens, UniProt P16471)
T2 construct: a native PRLR expressing cell line (T47D); endogenous in cells; host or cells: T47D
T2 sequence (P16471 25-622): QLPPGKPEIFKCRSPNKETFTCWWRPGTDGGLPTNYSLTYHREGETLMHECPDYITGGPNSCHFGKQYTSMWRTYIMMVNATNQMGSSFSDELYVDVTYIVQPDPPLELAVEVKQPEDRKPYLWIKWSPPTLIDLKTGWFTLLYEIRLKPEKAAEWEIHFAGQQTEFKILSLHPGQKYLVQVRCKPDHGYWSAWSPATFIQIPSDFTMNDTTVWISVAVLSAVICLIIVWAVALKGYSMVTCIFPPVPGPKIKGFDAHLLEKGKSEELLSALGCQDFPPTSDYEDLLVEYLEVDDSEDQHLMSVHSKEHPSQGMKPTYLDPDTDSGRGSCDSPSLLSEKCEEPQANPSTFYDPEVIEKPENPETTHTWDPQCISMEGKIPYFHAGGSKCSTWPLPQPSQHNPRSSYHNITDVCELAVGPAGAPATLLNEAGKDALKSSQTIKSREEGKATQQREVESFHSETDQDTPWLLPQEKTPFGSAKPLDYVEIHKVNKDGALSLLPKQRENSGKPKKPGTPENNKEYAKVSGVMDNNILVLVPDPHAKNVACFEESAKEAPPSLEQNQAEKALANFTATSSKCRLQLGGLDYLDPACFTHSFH

B1: H1H6762P: anti-PRLR antibody, human IgG1 Fc; HCVR/LCVR SEQ ID NOs 2/10 (antibody, V domains shown)
VH: QVQLVESGGGVVQPGRSLRLSCAASGFTFSHYGMVWVRQPPGKGLEWVALISFDGTTKYYADSVKGRFTISRDNSKNTLYLQMNSLRAEDTAVYFCVGAIAAAAFDLWGRGTLVTVSS
VL: EIVMTQSPATLSVSPGERATLSCRASQSVSSDLAWYQQKPGQAPRLLIYSASARATGIPARFTGSGSGTDFTLTISSLQSEDFAVYYCQQYNNWPMYTFGQGTKLEIK
modifications: human IgG1 Fc
B2: H1H6765P: anti-PRLR antibody, human IgG1 Fc; HCVR/LCVR SEQ ID NOs 18/26 (antibody, V domains shown)
VH: EVQLVESGGGVVRPGGSLRLSCVGSGFSFDDHGMNWVRQGPGKGLEWVSGFNWNGGSTNYAESVKGRFTISRDNARNSLFLQMNSLRAEDTALYYCVRGRSGWFNDAFDVWGPGTMVTVSS
VL: EIVLTQSPGTLSLSPGERATLSCRASQTINSNYLAWYRQKPGQTPRLLIYGTSSRATGIPDRFSGSGSGTDFSLTISRLEPEDFAVFYCQQYAGLPTFGPGTKVDIK
modifications: human IgG1 Fc
B3: H1H6966N: human IgG1 Fc form of H2M6966N; anti-PRLR; HCVR/LCVR SEQ ID NOs 338/346 (antibody, V domains shown)
VH: QVQLVQSGAEVQKPGASVKVSCKVSGYTLTALSIHWVRQAPGKGLEWMGNFDPGDGETIHAQKFQGRVTMTGDTSTDTAYMELSSLRSEDTAVYYCVGVTFDYWGQGTLVTVSS
VL: EIVMTQSPATLSVSPGERATLSCRASQSVASNLAWYQQKPGQAPRLLLYGASTRATGIPARFSGSGSGTEFTLTISSLQSEDFALYYCQHYNNWPLTFGGGTKVEIK
modifications: human IgG1 Fc
B4: H1H6967N: human IgG1 Fc form of H2M6967N; anti-PRLR; HCVR/LCVR SEQ ID NOs 354/362 (antibody, V domains shown)
VH: EVQLVESGGDLVHPGRSLRLSCAASGFPFDEYAMHWVRQVPGKGLEWVSGISWSNNNIGYADSVKGRFTISRDNAKNSLYLQMNSLRPEDTAFYYCAKSGIFDSWGQGTLVTVSS
VL: B3 VL with A30S, S31R, N32D, L48I, Y49H, T69A, T74I, L85V, H90Q
modifications: human IgG1 Fc
B5: H1H6976N: human IgG1 Fc form of H2M6976N; anti-PRLR; HCVR/LCVR SEQ ID NOs 386/394 (antibody, V domains shown)
VH: EVQLLESGGGFVQPGGSLRLSCAASGFTFSSYAMSWVRQAPGKGLEWVSIISSNGRYTYYADSVKGRFTISRDNSKNTLYLQMNSLRAEDTAVYYCATVTGDWFDPWGQGTLVTVSS
VL: DIQLTQSPSFLSASVGDRVTITCWASQDIDISLAWYQQKPGKAPKLLIYAASTLQSGVPSKFSGSGSGTDFTLTISSLQPEDFSTYYCQQLNSYPITFGQGTRLDIK
modifications: human IgG1 Fc
B6: H1H6959N2: human IgG1 Fc form of H2M6959N2; anti-PRLR; HCVR/LCVR SEQ ID NOs 306/314 (antibody, V domains shown)
VH: EVQLVESGGGLVQPGRSLRLSCAASGFTFDDYAMHWVRQAPGKGLEWVSGISWHSGIIGYADSVKGRFTISRDNAKNSLYLQMNSLRTEDAALYYCAKIGSYFYFDSWGQGTLVTVSS
VL: EIVLTQSPGTLSLSPGERATLSCRASQSVSSNYLAWYQQKPGQAPRLLIYGASSRATGIPDRFSGSGSGTDFTLTISRLEPEDFAVYYCQQFGSSGYTFGQGTNLEIK
modifications: human IgG1 Fc
B7: H1H6958N2: human IgG1 Fc form of H2M6958N2; anti-PRLR, receptor blocking; HCVR/LCVR SEQ ID NOs 290/298 (antibody, V domains shown)
VH: QVQLVESGGGVVQPGRSLRLSCGASGFTFRNYGMQWVRQGPGKGLEWVTLISFDGNDKYYADSVKGRFTISRDNSKNTLFLQMNSLRTEDTAVYYCARGGDFDYWGQGTLVTVSS
VL: DIQMTQSPSSLSASVGDRVTITCRASQDIRKDLGWYQQKPGKAPKRLIYAASSLHSGVPSRFSGSGSGTEFTLTISSLQPEDFATYYCLQHNSYPMYTFGQGTKLEIK
modifications: human IgG1 Fc
B8: H1H6975N: human IgG1 Fc form of H2M6975N; anti-PRLR; HCVR/LCVR SEQ ID NOs 370/378 (antibody, V domains shown)
VH: EVHLVESGGGLVQPGGSLRLSCAASGFTFSSYEMNWVRQTPGKGLEWISHISSRSVIIYYADSVKGRFTISRDNAKNSLFLQMNSLRAEDTAVYFCAGITIFGIPEYWGQGTLVTVSS
VL: EIVLTQSPATLSLSPGERATLSCRASQSVSSYFAWYQQKPGQAPRLLIYDASSRATGIPTRFSGSGSGTDFTLTISSLEPEDFAVYYCQQRSSWPITFGQGTRLEIK
modifications: human IgG1 Fc
B9: H1H6960N: human IgG1 Fc form of H2M6960N; anti-PRLR; HCVR/LCVR SEQ ID NOs 322/330 (antibody, V domains shown)
VH: EVQLVESGGGLVKPGGSLRLSCAASGITFSSYSMNWVRQAPGKGLEWVSSISTRSSLIHYADSVKGRFTISRDNAKNSLYLQMNSLRDEDTAVYYCARWDAAAAFDYWGQGTLVIVSS
VL: DIQLTQSPSFLSASVGDRVTITCWASQGISSYLAWYQQKPGKAPKLLIYVASTLQSGVPSRFSGSGSGTEFTLTISSLQPEDFATYFCQQLNSYPLTFGGGTKVEIK
modifications: human IgG1 Fc

These molecules were tested against T1, HEK293/mPRLR (assay: FACS cell surface binding). Conditions: not given.
How it was run: (§1)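 HEK293 lines stably expressing HA-tagged human, cynomolgus or mouse PRLR, native-expressing T47D and parental HEK293 tested by flow cytometry. Cells (1×10^5) stained with primary antibody 30 min on ice, then PE anti-human secondary; MFI expressed as fold over isotype control.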

| FACS Cell Binding (Fold Above Background) | Molecule |
| --- | --- |
| 2 | B1 |
| 1 | B2 |
| 1 | B3 |
| 2 | B4 |
| 1 | B5 |
| 2 | B6 |
| 1 | B7 |
| 1 | B8 |
| 1 | B9 |

The molecules below were run against T2, T47D (native PRLR expressing cell line) (assay: FACS cell surface binding). Conditions: not given.
How it was run: as §1

| FACS Cell Binding (Fold Above Background) | Molecule |
| --- | --- |
| 38 | B1 |
| 40 | B2 |
| 31 | B3 |
| 41 | B4 |
| 37 | B5 |
| 9 | B6 |
| 37 | B7 |
| 46 | B8 |
| 33 | B9 |

Each molecule was assayed on HEK293/hPRLR/STAT5-Luc cells (human PRLR) (assay: STAT5-Luc luciferase reporter assay, blocking of PRL-mediated receptor activation). Conditions: 5 nM constant PRL, 6 hr at 37° C.
Assay type: cell-based
Description: The ability of anti-PRLR antibodies to block prolactin (PRL)-mediated receptor activation was examined in a luciferase-based reporter assay. The endocrine hormone PRL binds to the extracellular domain of its cognate receptor PRLR, triggering rapid homodimerization and activating several downstream signaling cascades.
In this example, an engineered cell line was used to determine the ability of anti-PRLR antibodies to block ligand activation of the PRLR receptor. Briefly, HEK293/hPRLR/STAT5-Luc cell lines with stable incorporation of a human PRLR expression cassette and the STAT5-dependent luciferase reporter were generated via sequential rounds of Lipofectamine® 2000-mediated transfection (LifeTechnologies, Carlsbad, Calif.). Cells were selected for at least two weeks in the presence of 500 μg/mL G418 (hPRLR) and 100 μg/mL hygromycin B (STAT5-Luc). The STAT5-Luc assay utilized 2×10^5 HEK293/hPRLR/STAT5-Luc cells seeded in complete growth medium on PDL-coated 96 well plates grown overnight at 37° C., 5% CO2. To generate antibody inhibition curves, cells were incubated (6 hr at 37° C.) with serially diluted anti-human PRLR antibodies (100 nM to 24 pM) in the presence of 5 nM constant PRL before recording signal. PRL dose response curves were generated by the addition of serially diluted PRL (100 nM to 24 pM) to cells and recording signal after a 6 hr (37° C.) incubation in the absence of antibodies. The ability of the antibodies to activate PRLR in the absence of ligand was also assessed.
Luciferase activity was measured with ONE-GLO™ reagent (Promega, Madison, Wis.). Relative light units (RLUs) were measured on a Victor luminometer (Perkin Elmer, Shelton, Conn.). EC50/IC50 values were determined from a four-parameter logistic equation over an 8-point response curve using GraphPad Prism. Percent blocking and percent activation are reported for the highest antibody dose.

| Molecule | IC50 [nM] |
| --- | --- |
| B1 | 0.0219 |
| B2 | 0.033 |
| B4 | 0.768 |
| B7 | 0.198 |
| B8 | 0.241 |
| B9 | 1.58 |

Same assay, conditions: 100 nM antibody, 5 nM PRL

| Molecule | Percent Blocking at 100 nM Antibody [%] |
| --- | --- |
| B1 | 100 |
| B2 | 100 |
| B3 | 54 |
| B4 | 100 |
| B5 | 23 |
| B6 | 52 |
| B7 | 100 |
| B8 | 100 |
| B9 | 100 |
